Measurements from patent publication US20230407373A1 (priority 2020, published 2023).

Tested on: HCoV-OC43 gRNA and sgRNA
Assay type: binding
Settings: for target (unweighted spectral count, OC43 Probe II capture): 36 hpi, type n_36_v, tested against no-probe control, FDR<10%; for target (unweighted spectral count, OC43 Probe II) / background (unweighted spectral count, no-probe control): type n_48_v, 48 hpi; for target (unweighted spectral count, OC43 Probe II): OC43 Probe II capture on infected cells; for background (unweighted spectral count, no-probe control): no-probe control on infected cells

B1: SRP72 (protein, UniProt O76094 2-671, looked up)
Signal recognition particle …: ASGGSGGVSVPALWSEVNRYGQNGDFTRALKTVNKILQINKDDVTALHCKVVCLIQNGSFKEALNVINTHTKVLANNSLSFEKAYCEYRLNRIENALKTIESANQQTDKLKELYGQVLYRLERYDECLAVYRDLVRNSQDDYDEERKTNLSAVVAAQSNWEKVVPENLGLQEGTHELCYNTACALIGQGQLNQAMKILQKAEDLCRRSLSEDTDGTEEDPQAELAIIHGQMAYILQLQGRTEEALQLYNQIIKLKPTDVGLLAVIANNIITINKDQNVFDSKKKVKLTNAEGVEFKLSKKQLQAIEFNKALLAMYTNQAEQCRKISASLQSQSPEHLLPVLIQAAQLCREKQHTKAIELLQEFSDQHPENAAEIKLTMAQLKISQGNISKACLILRSIEELKHKPGMVSALVTMYSHEEDIDSAIEVFTQAIQWYQNHQPKSPAHLSLIREAANFKLKYGRKKEAISDLQQLWKQNPKDIHTLAQLISAYSLVDPEKAKALSKHLPSSDSMSLKVDVEALENSAGATYIRKKGGKVTGDSQPKEQGQGDLKKKKKKKKGKLPKNYDPKVTPDPERWLPMRERSYYRGRKKGKKKDQIGKGTQGATAGASSELDASKTVSSPPTSPRPGSAATVSASTSNIIPPRHQKPAGAPATKKKQQQKKKKGGKGGW
target (unweighted spectral count, OC43 Probe II capture): 4

B2: NHP2 (protein, UniProt Q9NX24 1-153, looked up)
H/ACA ribonucleoprotein …: MTKIKADPDGPEAQAEACSGERTYQELLVNQNPIAQPLASRRLTRKLYKCIKKAVKQKQIRRGVKEVQKFVNKGEKGIMVLAGDTLPIEVYCHLPVMCEDRNLPYVYIPSKTDLGAAAGSKRPTCVIMVKPHEEYQEAYDECLEEVQSLPLPL
target (unweighted spectral count, OC43 Probe II capture): 6 | target (unweighted spectral count, OC43 Probe II): 6 | background (unweighted spectral count, no-probe control): 1

B3: SNX13 (protein, UniProt Q9Y5W8 1-968, looked up)
Sorting nexin-13: MLTEASLSIWGWGSLGIVLFLITFGPFVIFYLTFYILCFVGGGLVVTLLFGKTNSEKYLEQCEHSFLPPTSPGVPKCLEEMKREARTIKIDRRLTGANIIDEPLQQVIQFSLRDYVQYWYYTLSDDESFLLEIRQTLQNALIQFATRSKEIDWQPYFTTRIVDDFGTHLRVFRKAQQKITEKDDQVKGTAEDLVDTFFEVEVEMEKEVCRDLVCTSPKDEEGFLRDLCEVLLYLLLPPGDFQNKIMRYFVREILARGILLPLINQLSDPDYINQYVIWMIRDSNCNYEAFMNIIKLSDNIGELEAVRDKAAEELQYLRSLDTAGDDINTIKNQINSLLFVKKVCDSRIQRLQSGKEINTVKLAANFGKLCTVPLDSILVDNVALQFFMDYMQQTGGQAHLFFWMTVEGYRVTAQQQLEVLLSRQRDGKHQTNQTKGLLRAAAVGIYEQYLSEKASPRVTVDDYLVAKLADTLNHEDPTPEIFDDIQRKVYELMLRDERFYPSFRQNALYVRMLAELDMLKDPSFRGSDDGDGESFNGSPTGSINLSLDDLSNVSSDDSVQLHAYISDTVYADYDPYAVAGVCNDHGKTYALYAITVHRRNLNSEEMWKTYRRYSDFHDFHMRITEQFESLSSILKLPGKKTFNNMDRDFLEKRKKDLNAYLQLLLAPEMMKASPALAHYVYDFLENKAYSKGKGDFARKMDTFVNPLRNSMRNVSNAVKSLPDSLAEGMTKMSDNMGKMSERLGQDIKQSFFKVPPLIPKTDSDPEHRRVSAQLDDNVDDNIPLRVMLLLMDEVFDLKERNQWLRRNIKNLLQQLIRATYGDTINRKIVDHVDWMTSPEQVADSVKRFRDAFWPNGILAEAVPCRDKSIRMRTRVAGKTKLLAIMPDELKHIIGAETTRKGILRVFEMFQHNQLNRRMVYVFLEGFLETLFPQYKFRELFNKLHSRSKQMQKYKQKLQTTQAPSLQKR
target (unweighted spectral count, OC43 Probe II capture): 5

B4: SF3B1 (protein, UniProt O75533 1-1304, looked up)
Splicing factor 3B subunit 1: MAKIAKTHEDIEAQIREIQGKKAALDEAQGVGLDSTGYYDQEIYGGSDSRFAGYVTSIAATELEDDDDDYSSSTSLLGQKKPGYHAPVALLNDIPQSTEQYDPFAEHRPPKIADREDEYKKHRRTMIISPERLDPFADGGKTPDPKMNARTYMDVMREQHLTKEEREIRQQLAEKAKAGELKVVNGAAASQPPSKRKRRWDQTADQTPGATPKKLSSWDQAETPGHTPSLRWDETPGRAKGSETPGATPGSKIWDPTPSHTPAGAATPGRGDTPGHATPGHGGATSSARKNRWDETPKTERDTPGHGSGWAETPRTDRGGDSIGETPTPGASKRKSRWDETPASQMGGSTPVLTPGKTPIGTPAMNMATPTPGHIMSMTPEQLQAWRWEREIDERNRPLSDEELDAMFPEGYKVLPPPAGYVPIRTPARKLTATPTPLGGMTGFHMQTEDRTMKSVNDQPSGNLPFLKPDDIQYFDKLLVDVDESTLSPEEQKERKIMKLLLKIKNGTPPMRKAALRQITDKAREFGAGPLFNQILPLLMSPTLEDQERHLLVKVIDRILYKLDDLVRPYVHKILVVIEPLLIDEDYYARVEGREIISNLAKAAGLATMISTMRPDIDNMDEYVRNTTARAFAVVASALGIPSLLPFLKAVCKSKKSWQARHTGIKIVQQIAILMGCAILPHLRSLVEIIEHGLVDEQQKVRTISALAIAALAEAATPYGIESFDSVLKPLWKGIRQHRGKGLAAFLKAIGYLIPLMDAEYANYYTREVMLILIREFQSPDEEMKKIVLKVVKQCCGTDGVEANYIKTEILPPFFKHFWQHRMALDRRNYRQLVDTTVELANKVGAAEIISRIVDDLKDEAEQYRKMVMETIEKIMGNLGAADIDHKLEEQLIDGILYAFQEQTTEDSVMLNGFGTVVNALGKRVKPYLPQICGTVLWRLNNKSAKVRQQAADLISRTAVVMKTCQEEKLMGHLGVVLYEYLGEEYPEVLGSILGALKAIVNVIGMHKMTPPIKDLLPRLTPILKNRHEKVQENCIDLVGRIADRGAEYVSAREWMRICFELLELLKAHKKAIRRATVNTFGYIAKAIGPHDVLATLLNNLKVQERQNRVCTTVAIAIVAETCSPFTVLPALMNEYRVPELNVQNGVLKSLSFLFEYIGEMGKDYIYAVTPLLEDALMDRDLVHRQTASAVVQHMSLGVYGFGCEDSLNHLLNYVWPNVFETSPHVIQAVMGALEGLRVAIGPCRMLQYCLQGLFHPARKVRDVYWKIYNSIYIGSQDALIAHYPRIYNDDKNTYIRYELDYIL
target (unweighted spectral count, OC43 Probe II capture): 6

B5: TRIM28 (protein, UniProt Q13263 2-835, looked up)
Transcription intermediary …: AASAAAASAAAASAASGSPGPGEGSAGGEKRSTAPSAAASASASAAASSPAGGGAEALELLEHCGVCRERLRPEREPRLLPCLHSACSACLGPAAPAAANSSGDGGAAGDGTVVDCPVCKQQCFSKDIVENYFMRDSGSKAATDAQDANQCCTSCEDNAPATSYCVECSEPLCETCVEAHQRVKYTKDHTVRSTGPAKSRDGERTVYCNVHKHEPLVLFCESCDTLTCRDCQLNAHKDHQYQFLEDAVRNQRKLLASLVKRLGDKHATLQKSTKEVRSSIRQVSDVQKRVQVDVKMAILQIMKELNKRGRVLVNDAQKVTEGQQERLERQHWTMTKIQKHQEHILRFASWALESDNNTALLLSKKLIYFQLHRALKMIVDPVEPHGEMKFQWDLNAWTKSAEAFGKIVAERPGTNSTGPAPMAPPRAPGPLSKQGSGSSQPMEVQEGYGFGSGDDPYSSAEPHVSGVKRSRSGEGEVSGLMRKVPRVSLERLDLDLTADSQPPVFKVFPGSTTEDYNLIVIERGAAAAATGQPGTAPAGTPGAPPLAGMAIVKEEETEAAIGAPPTATEGPETKPVLMALAEGPGAEGPRLASPSGSTSSGLEVVAPEGTSAPGGGPGTLDDSATICRVCQKPGDLVMCNQCEFCFHLDCHLPALQDVPGEEWSCSLCHVLPDLKEEDGSLSLDGADSTGVVAKLSPANQRKCERVLLALFCHEPCRPLHQLATDSTFSLDQPGGTLDLTLIRARLQEKLSPPYSSPQEFAQDVGRMFKQFNKLTEDKADVQSIIGLQRFFETRMNEAFGDTKFSAVLVEPPPMSLPGAGLSSQELSGGPGDGP
target (unweighted spectral count, OC43 Probe II capture): 13 | target (unweighted spectral count, OC43 Probe II): 6 | background (unweighted spectral count, no-probe control): 1

B6: PATL1 (protein, UniProt Q86TB9 1-770, looked up)
Protein PAT1 homolog 1: MFRYESLEDCPLDEDEDAFQGLGEEDEEIDQFNDDTFGSGAVDDDWQEAHERLAELEEKLPVAVNEQTGNGERDEMDLLGDHEENLAERLSKMVIENELEDPAIMRAVQTRPVLQPQPGSLNSSIWDGSEVLRRIRGPLLAQEMPTVSVLEYALPQRPPQGPEDDRDLSERALPRRSTSPIIGSPPVRAVPIGTPPKQMAVPSFTQQILCPKPVHVRPPMPPRYPAPYGERMSPNQLCSVPNSSLLGHPFPPSVPPVLSPLQRAQLLGGAQLQPGRMSPSQFARVPGFVGSPLAAMNPKLLQGRVGQMLPPAPGFRAFFSAPPSATPPPQQHPPGPGPHLQNLRSQAPMFRPDTTHLHPQHRRLLHQRQQQNRSQHRNLNGAGDRGSHRSSHQDHLRKDPYANLMLQREKDWVSKIQMMQLQSTDPYLDDFYYQNYFEKLEKLSAAEEIQGDGPKKERTKLITPQVAKLEHAYKPVQFEGSLGKLTVSSVNNPRKMIDAVVTSRSEDDETKEKQVRDKRRKTLVIIEKTYSLLLDVEDYERRYLLSLEEERPALMDDRKHKICSMYDNLRGKLPGQERPSDDHFVQIMCIRKGKRMVARILPFLSTEQAADILMTTARNLPFLIKKDAQDEVLPCLLSPFSLLLYHLPSVSITSLLRQLMNLPQSAATPALSNPHLTAVLQNKFGLSLLLILLSRGEDLQSSDPATESTQNNQWTEVMFMATRELLRIPQAALAKPISIPTNLVSLFSRYVDRQKLNLLETKLQLVQGIR
target (unweighted spectral count, OC43 Probe II capture): 6

B7: UBAP2 (protein, UniProt Q5T6F2 1-1119, looked up)
Ubiquitin-associated protein 2: MMTSVSSDHCRGAREKPQISAAQSTQPQKQVVQATAEQMRLAQVIFDKNDSDFEAKVKQLMEVTGKNQDECIVALHDCNGDVNKAINILLEGNSDTTSWETVGCKKKNFAKENSENKENREKKSEKESSRGRGNNNRKGRGGNRGREFRGEENGIDCNQVDKPSDRGKRARGRGFGRGRGRGAGRFSTQGMGTFNPADYSDSTSTDVCGTKLVVWEAAQNGADEGTELASNTHNIAQDLSNKSSYGLKGAWKNSVEEWTTEDWTEDLSETKVFTASSAPAENHILPGQSIDLVALLQKPVPHSQASEANSFETSQQQGFGQALVFTNSQHNNQMAPGTGSSTAVNSCSPQSLSSVLGSGFGELAPPKMANITSSQILDQLKAPSLGQFTTTPSTQQNSTSHPTTTTSWDLKPPTSQSSVLSHLDFKSQPEPSPVLSQLSQRQQHQSQAVTVPPPGLESFPSQAKLRESTPGDSPSTVNKLLQLPSTTIENISVSVHQPQPKHIKLAKRRIPPASKIPASAVEMPGSADVTGLNVQFGALEFGSEPSLSEFGSAPSSENSNQIPISLYSKSLSEPLNTSLSMTSAVQNSTYTTSVITSCSLTSSSLNSASPVAMSSSYDQSSVHNRIPYQSPVSSSESAPGTIMNGHGGGRSQQTLDTPKTTGPPSALPSVSSLPSTTSCTALLPSTSQHTGDLTSSPLSQLSSSLSSHQSSLSAHAALSSSTSHTHASVESASSHQSSATFSTAATSVSSSASSGASLSSSMNTANSLCLGGTPASASSSSSRAAPLVTSGKAPPNLPQGVPPLLHNQYLVGPGGLLPAYPIYGYDELQMLQSRLPVDYYGIPFAAPTALASRDGSLANNPYPGDVTKFGRGDSASPAPATTPAQPQQSQSQTHHTAQQPFVNPALPPGYSYTGLPYYTGMPSAFQYGPTMFVPPASAKQHGVNLSTPTPPFQQASGYGQHGYSTGYDDLTQGTAAGDYSKGGYAGSSQAPNKSAGSGPGKGVSVSSSTTGLPDMTGSVYNKTQTFDKQGFHAGTPPPFSLPSVLGSTGPLASGAAPGYAPPPFLHILPAHQQPHSQLLHHHLPQDAQSGSGQRSQPSSLQPKSQASKPAYGNSPYWTN
target (unweighted spectral count, OC43 Probe II capture): 4
